From US20180311371A1 (Hoffmann-La Roche, published 2018)
Where two headings read alike, the source gives them in different places.

Legend:
[1] = target: T1, human TPBG (trophoblast glycoprotein), full length, cell surface expressed (human, UniProt Q13641 32-420); assay: cell-based or functional assay
T1 sequence: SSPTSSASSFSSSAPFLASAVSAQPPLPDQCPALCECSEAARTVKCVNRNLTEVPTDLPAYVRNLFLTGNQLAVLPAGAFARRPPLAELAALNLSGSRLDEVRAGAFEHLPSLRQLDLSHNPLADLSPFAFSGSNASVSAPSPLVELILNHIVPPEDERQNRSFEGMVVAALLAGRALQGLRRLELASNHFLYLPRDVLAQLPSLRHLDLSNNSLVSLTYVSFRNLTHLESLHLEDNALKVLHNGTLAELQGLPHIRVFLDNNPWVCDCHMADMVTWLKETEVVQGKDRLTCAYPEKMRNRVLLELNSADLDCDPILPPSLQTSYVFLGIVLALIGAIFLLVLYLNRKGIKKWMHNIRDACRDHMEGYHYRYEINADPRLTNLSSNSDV

[2] = target: T1, human TPBG (trophoblast glycoprotein), …; assay: cell-based or functional assay; remark: listed apart in the source
[3] = target: T2, minipig TPBG, full length, cell surface expressed on CHO-K1 cells (minipig); assay: cell-based or functional assay
T2 chain: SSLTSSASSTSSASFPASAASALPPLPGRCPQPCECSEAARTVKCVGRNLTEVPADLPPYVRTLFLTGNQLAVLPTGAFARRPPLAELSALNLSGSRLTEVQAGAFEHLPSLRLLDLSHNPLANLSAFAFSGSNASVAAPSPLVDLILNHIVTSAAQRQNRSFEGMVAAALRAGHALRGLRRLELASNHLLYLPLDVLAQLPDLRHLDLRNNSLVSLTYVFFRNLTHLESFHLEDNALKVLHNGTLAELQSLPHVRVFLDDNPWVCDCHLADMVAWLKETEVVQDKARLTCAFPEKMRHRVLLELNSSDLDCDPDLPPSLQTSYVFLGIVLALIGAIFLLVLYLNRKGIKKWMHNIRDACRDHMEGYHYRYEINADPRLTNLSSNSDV

[4] = target: T1, human TPBG (trophoblast glycoprotein), …; assay: cell-based or functional assay; remark: listed apart in the source
[5] = target: T1, human TPBG (trophoblast glycoprotein), …; assay: cell-based or functional assay; remark: listed apart in the source
[6] = target: T1, human TPBG (trophoblast glycoprotein), …; assay: cell ELISA on MCF7 cells; titrated from 5 µg/ml
[7] = target: T3, huTPBG (recombinant human TPBG immobilised on the Biacore chip) (human, UniProt Q13641 32-355, limits assumed); assay: SPR Biacore T200; huTPBG amine-coupled, Fab injected
T3 construct: also called human TPBG antigen
T3 sequence: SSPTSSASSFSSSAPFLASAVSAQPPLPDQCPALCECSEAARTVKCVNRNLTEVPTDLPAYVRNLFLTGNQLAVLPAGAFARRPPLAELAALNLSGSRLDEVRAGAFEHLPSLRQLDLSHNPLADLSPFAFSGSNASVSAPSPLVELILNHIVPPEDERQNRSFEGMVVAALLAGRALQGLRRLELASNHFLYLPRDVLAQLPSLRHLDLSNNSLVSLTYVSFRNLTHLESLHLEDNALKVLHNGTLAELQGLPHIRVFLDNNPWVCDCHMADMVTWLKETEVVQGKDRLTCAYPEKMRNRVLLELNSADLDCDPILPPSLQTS

[8] = target: T1, human TPBG (trophoblast glycoprotein), …; assay: flow cytometry on SW620 clone 4 cells; ratio of MFI; replicate 1
[9] = target: T1, human TPBG (trophoblast glycoprotein), …; assay: flow cytometry on SW620 clone 4 cells; ratio of MFI; replicate 2
[10] = target: T4, recombinant extracellular domain of minipig TPBG (Biacore analyte) (minipig); assay: SPR Biacore T200; Fab captured by anti-huFab, minipig TPBG injected
T4 chain: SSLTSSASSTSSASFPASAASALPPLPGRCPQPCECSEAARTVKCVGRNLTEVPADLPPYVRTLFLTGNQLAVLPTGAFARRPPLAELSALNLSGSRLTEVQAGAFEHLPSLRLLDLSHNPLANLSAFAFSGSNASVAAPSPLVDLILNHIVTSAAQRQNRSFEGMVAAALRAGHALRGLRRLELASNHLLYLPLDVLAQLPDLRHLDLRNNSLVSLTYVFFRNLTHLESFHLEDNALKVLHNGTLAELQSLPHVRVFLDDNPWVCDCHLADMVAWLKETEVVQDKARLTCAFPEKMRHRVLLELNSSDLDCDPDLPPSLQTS

[11] = target: T5, human TPBG extracellular domain, His6Avi, biotinylated (human, biotinylated); assay: ELISA; biotinylated TPBG-AviHis on streptavidin plate; Fab titrated from 2 µg/ml
T5 construct: also called huTPBG; human TPBG-AviHis
T5 chain: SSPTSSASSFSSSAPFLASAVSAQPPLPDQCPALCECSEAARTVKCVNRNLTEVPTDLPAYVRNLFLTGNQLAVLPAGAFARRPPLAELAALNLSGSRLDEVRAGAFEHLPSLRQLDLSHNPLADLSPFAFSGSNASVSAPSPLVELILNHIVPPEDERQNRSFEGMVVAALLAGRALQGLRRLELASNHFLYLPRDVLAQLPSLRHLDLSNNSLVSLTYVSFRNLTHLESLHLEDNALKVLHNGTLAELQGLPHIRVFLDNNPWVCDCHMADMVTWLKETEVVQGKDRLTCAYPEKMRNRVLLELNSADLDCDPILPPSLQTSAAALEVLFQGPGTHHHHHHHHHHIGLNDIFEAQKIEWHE

[12] = target: T6, minipig TPBG extracellular domain, His6Avi, biotinylated (minipig, biotinylated); assay: as above
T6 construct: also called mpTPBG; minipig TPBG-AviHis
T6 chain: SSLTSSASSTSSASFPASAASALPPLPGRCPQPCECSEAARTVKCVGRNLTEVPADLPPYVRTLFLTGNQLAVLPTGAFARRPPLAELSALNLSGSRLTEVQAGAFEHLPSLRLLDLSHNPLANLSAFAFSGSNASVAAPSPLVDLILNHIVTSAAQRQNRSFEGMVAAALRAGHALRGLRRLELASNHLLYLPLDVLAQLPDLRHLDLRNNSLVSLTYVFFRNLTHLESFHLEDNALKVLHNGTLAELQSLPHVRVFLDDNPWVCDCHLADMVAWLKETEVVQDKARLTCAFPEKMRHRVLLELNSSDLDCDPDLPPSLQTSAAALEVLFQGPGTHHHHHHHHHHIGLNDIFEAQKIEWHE

[13] = target: T1, human TPBG (trophoblast glycoprotein), …
[14] = target: T1, human TPBG (trophoblast glycoprotein), …; assay: cell-based or functional assay; remark: listed apart in the source

B1: anti-TPBG antibody 097, Fab fragment (Fab, V domains shown)
VH: EVQLLESGGGLAQPGGSLRLSCAASGFTFNNDAMTWVRQAPGKGLEWVSAISGSGGSTYYADSVKGRFTISRDNSKNTLYLQMNSLRAEDTAVYYCAKGGSWGDWYYYFYPMDVWGQGTTVTVSS
VL: not shown
notes: also called Fab4
[1]
  internalization after 0.5 h, MCF7 cells: 28%
  internalization after 1.0 h, MCF7 cells: 42%
  internalization after 2.0 h, MCF7 cells: 61%
[2]
  EC50 cytotoxicity, Fab + anti-kappa-Fab-PE, CHO-K1/human TPBG, replicate 1: 0.3 nM
  EC50 cytotoxicity, Fab + anti-kappa-Fab-PE, CHO-K1/human TPBG, replicate 2: 0.33 nM
[3]
  EC50 cytotoxicity, Fab + anti-kappa-Fab-PE, CHO-K1/minipig TPBG, replicate 1: 2.08 nM
  EC50 cytotoxicity, Fab + anti-kappa-Fab-PE, CHO-K1/minipig TPBG, replicate 2: 2.15 nM
[4]
  EC50 cytotoxicity, Fab-PE sandwich construct, MCF7: 0.935 nM
  X-fold higher potency compared to TPBG(H8)PE, MCF7, first experiment: 1.3 fold
  X-fold higher potency compared to TPBG(H8)PE, MCF7, second experiment: 2.4 fold
[5]
  EC50 cytotoxicity, Fab-PE sandwich construct, H1975, replicate 1: 0.826 nM
  EC50 cytotoxicity, Fab-PE sandwich construct, H1975, replicate 2: 0.656 nM
  EC50 cytotoxicity, Fab-PE sandwich construct, H1975, replicate 3: 0.706 nM
[6]
  EC50: 0.451 µg/mL
[7]
  Kd: 0.82 nM
  koff: 0.000814 s⁻¹
  kon: 993000 M⁻¹ s⁻¹
[8]
  Fold change pH 7.2 vs pH 5.5: 1.2 fold
[9]
  Fold change pH 7.2 vs pH 5.5: 1.2 fold
[10]
  Kd: 1.35 nM
  koff: 0.000254 s⁻¹
  kon: 189000 M⁻¹ s⁻¹
[11]
  EC50: 0.0152 µg/mL
[12]
  EC50: 0.0436 µg/mL

B2: 097 Fab coupled to PE24 (LR8M) via sortase coupling (Fab)
heavy: EVQLLESGGGLAQPGGSLRLSCAASGFTFNNDAMTWVRQAPGKGLEWVSAISGSGGSTYYADSVKGRFTISRDNSKNTLYLQMNSLRAEDTAVYYCAKGGSWGDWYYYFYPMDVWGQGTTVTVSSASTKGPSVFPLAPSSKSTSGGTAALGCLVKDYFPEPVTVSWNSGALTSGVHTFPAVLQSSGLYSLSSVVTVPSSSLGTQTYICNVNHKPSNTKVDKKVEPKSCGGGSLPETGGGRHRQPRGWEQLYPTGAEFLGDGGAVSFSTRGTQNWTVERLLQAHRQLEEGGYVFVGYHGTFLEAAQSIVFGGVRARSQDLDAIWAGFYIAGDPALAYGYAQDQEPDAAGRIRNGALLRVYVPRSSLPGFYATSLTLAAPEAAGEVERLIGHPLPLRLDAITGPEESGGRLETILGWPLAERTVVIPSAIPTDPRNVGGDLDPSSIPDSEAAISALPDYASQPGKPPREDL
light: not shown
[13]
  EC50: 0.63 nM
[14]
  EC50 cytotoxicity, sortase-coupled Fab-PE, MCF7: 0.054 nM
  X-fold higher potency compared to TPBG(H8)PE, MCF7: 1.1 fold

B3: 051 Fab coupled to PE24 (LR8M) via sortase coupling (Fab)
heavy: EVQLLESGGGLLQPGGSLRLSCAASGFTFSIYWMTWVRQAPGKGLEWVSAISGSGGSTYYADSVKGRFTISRDNSKNTLYLQMNSLRAEDTAVYYCAKDYYSNVYWGQGTLVTVSSASTKGPSVFPLAPSSKSTSGGTAALGCLVKDYFPEPVTVSWNSGALTSGVHTFPAVLQSSGLYSLSSVVTVPSSSLGTQTYICNVNHKPSNTKVDKKVEPKSCGGGSLPETGGGRHRQPRGWEQLYPTGAEFLGDGGAVSFSTRGTQNWTVERLLQAHRQLEEGGYVFVGYHGTFLEAAQSIVFGGVRARSQDLDAIWAGFYIAGDPALAYGYAQDQEPDAAGRIRNGALLRVYVPRSSLPGFYATSLTLAAPEAAGEVERLIGHPLPLRLDAITGPEESGGRLETILGWPLAERTVVIPSAIPTDPRNVGGDLDPSSIPDSEAAISALPDYASQPGKPPREDL
light: DIQMTQSPSSVSASVGDRVTITCRASQGIYSWLAWYQQKPGKAPKLLIYAASSLQSGVPSRFSGSGSGTDFTLTISSLQPEDFATYYCQQSDSPPYTFGQGTKLEIKRTVAAPSVFIFPPSDEQLKSGTASVVCLLNNFYPREAKVQWKVDNALQSGNSQESVTEQDSKDSTYSLSSTLTLSKADYEKHKVYACEVTHQGLSSPVTKSFNRGEC
[13]
  EC50: 0.67 nM
[14]
  EC50 cytotoxicity, sortase-coupled Fab-PE, MCF7: 0.036 nM
  X-fold higher potency compared to TPBG(H8)PE, MCF7: 1.7 fold

B4: 091 Fab coupled to PE24 (LR8M) via sortase coupling (Fab)
heavy: EVHLLESGGGLVHPGGSLRLSCAASGFTFRSDAMHWVRQAPGKGLEWVSGVSGSGGSPYYADSVKGRFTISRDDSKTTLYLQMNSLRAEDTAVYYCATGGSIAGSYYYYPMDVWGQGTTVTVSSASTKGPSVFPLAPSSKSTSGGTAALGCLVKDYFPEPVTVSWNSGALTSGVHTFPAVLQSSGLYSLSSVVTVPSSSLGTQTYICNVNHKPSNTKVDKKVEPKSCGGGSLPETGGGRHRQPRGWEQLYPTGAEFLGDGGAVSFSTRGTQNWTVERLLQAHRQLEEGGYVFVGYHGTFLEAAQSIVFGGVRARSQDLDAIWAGFYIAGDPALAYGYAQDQEPDAAGRIRNGALLRVYVPRSSLPGFYATSLTLAAPEAAGEVERLIGHPLPLRLDAITGPEESGGRLETILGWPLAERTVVIPSAIPTDPRNVGGDLDPSSIPDSEAAISALPDYASQPGKPPREDL
light: not shown
[13]
  EC50: 0.61 nM
[14]
  EC50 cytotoxicity, sortase-coupled Fab-PE, MCF7: 0.033 nM
  X-fold higher potency compared to TPBG(H8)PE, MCF7: 1.8 fold

B5: H8 Fab coupled to PE24 (LR8M) via sortase coupling (Fab, V domains shown)
VH: EVQLQQSGPDLVKPGASVKISCKASGYSFTGYYMHWVKQSHGKSLEWIGRINPNNGVTLYNQKFKDKAILTVDKSSTTAYMELRSLTSEDSAVYYCARSTMITNYVMDYWGQVTSVTVSS
VL: SIVMTQTPTFLLVSAGDRVTITCKASQSVSNDVAWYQQKPGQSPTLLISYTSSRYAGVPDRFIGSGYGTDFTFTISTLQAEDLAVYFCQQDYNSPPTFGGGTKLEIKR
[13]
  EC50: 1.56 nM
[14]
  EC50 cytotoxicity, sortase-coupled Fab-PE, MCF7: 0.059 nM
